Test results taken from patent publication US20230331809A1 (Zymeworks, published 2023).

Columns and labels:
[1] = target: T1, CD40 (Cluster of Differentiation 40) on cells (UniProt P25942 21-277, limits assumed); test: flow cytometry on Raji cells (CD40), MFI; sample treated with uPa (variant has no cleavage site)
T1 construct: whole, on cells

[2] = target: T1, CD40 (Cluster of Differentiation 40) on …; test: flow cytometry on Raji cells (CD40), MFI; sample treated with uPa; EC50 relative to v32477 -uPa
[3] = target: T1, CD40 (Cluster of Differentiation 40) on …; test: cell-based or functional assay
[4] = target: T1, CD40 (Cluster of Differentiation 40) on …; test: flow cytometry on Raji cells (CD40), MFI; EC50 relative to v32477 -uPa
[5] = target: T1, CD40 (Cluster of Differentiation 40) on …; test: flow cytometry on Raji cells (CD40), MFI
[6] = target: T2, PD-L1 (Programmed death-ligand 1) on cells (UniProt Q9NZQ7 19-290); test: cell-based or functional assay
[7] = target: T3, CD3 (Cluster of Differentiation 3) on Jurkat cells and on pan T cells (human, UniProt P07766 23-207); test: flow cytometry on pan T cells (CD3), MFI
T3 construct: whole, on cells

[8] = target: T3, CD3 (Cluster of Differentiation 3) on …; test: flow cytometry on human pan T cells, separate experiment (FIG. 32)
[9] = target: T3, CD3 (Cluster of Differentiation 3) on …; test: cell ELISA on Jurkat cells (CD3), OD450; reference sample
[10] = target: T3, CD3 (Cluster of Differentiation 3) on …; test: cell ELISA on Jurkat cells (CD3), OD450
[11] = target: T4, PD-1 (Programmed Cell Death Protein 1) on cells (UniProt Q15116 25-288); test: flow cytometry on PD-1 transfected CHO-S cells, MFI; * poor fit
T4 construct: whole, on cells

[12] = target: T3, CD3 (Cluster of Differentiation 3) on …; test: flow cytometry on pan T cells (CD3), MFI; remark: listed apart in the source
[13] = target: T2, PD-L1 (Programmed death-ligand 1) on …; test: flow cytometry on PD-L1 transfected CHO-S cells, MFI; * poor fit
[14] = target: T3, CD3 (Cluster of Differentiation 3) on …; test: flow cytometry on pan T cells (CD3), MFI; sample treated with uPa (variant has no mask)
[15] = target: T3, CD3 (Cluster of Differentiation 3) on …; test: cell ELISA on Jurkat cells (CD3), OD450; remark: listed apart in the source
[16] = target: T3, CD3 (Cluster of Differentiation 3) on …; test: flow cytometry on pan T cells (CD3), MFI; sample treated with uPa; EC50 relative to v30421 -uPa
[17] = target: T5, CDH3 (Cadherin 3) on JIMT1 cells (UniProt P22223 108-829, limits assumed); test: flow cytometry on JIMT1 cells (CDH3), MFI; EC50 relative to v17214
T5 construct: whole, on cells; also called P-cadherin

[18] = target: T5, CDH3 (Cadherin 3) on JIMT1 cells; test: flow cytometry on JIMT1 cells (CDH3), MFI
[19] = target: T5, CDH3 (Cadherin 3) on JIMT1 cells; test: flow cytometry on JIMT1 cells (CDH3), MFI; reference sample
[20] = target: T4, PD-1 (Programmed Cell Death Protein 1) …; test: flow cytometry on PD-1 transfected CHO-S cells, MFI; * poor fit; uncleavable variant, table and legend box disagree on the uPa treatment
[21] = target: T2, PD-L1 (Programmed death-ligand 1) on …; test: flow cytometry on PD-L1 transfected CHO-S cells, MFI; * poor fit; uncleavable variant, sample treated with uPa
[22] = target: T6, Mesothelin (MSLN) on OVCAR3 cells (UniProt Q13421 296-598); test: flow cytometry on OVCAR3 cells (MSLN), MFI; EC50 relative to v16417
T6 construct: whole, on cells

[23] = target: T6, Mesothelin (MSLN) on OVCAR3 cells; test: flow cytometry on OVCAR3 cells (MSLN), MFI

B1: Variant 32478: HA PD-1:WT PD-L1 masked aCD40 Mab, uncleavable (antibody, human IgG1, kappa)
heavy: not shown
light: AFTVTVPKDLYVVEYGSNMTIECKFPVEKQLDLAALIVYWEMEDKNIIQFVHGEEDLKVQHSSYRQRARLLKDQLSLGNAALQITDVKLQDAGVYRCMISYGGADYKRITVKVNAEAAAKEAAAKDIQMTQSPSSVSASVGDRVTITCRASQGIYSWLAWYQQKPGKAPNLLIYTASTLQSGVPSRFSGSGSGTDFTLTISSLQPEDFATYYCQQANIFPLTFGGGTKVEIKRTVAAPSVFIFPPSDEQLKSGTASVVCLLNNFYPREAKVQWKVDNALQSGNSQESVTEQDSKDSTYSLSSTLTLSKADYEKHKVYACEVTHQGLSSPVTKSFNRGEC
notes: also called v32478
- EC50 [1]: 65 nM
- Fold wrt WT [2]: 67 fold
- EC50, CD40 RGA, FcgRIIB CHOK1 (sample v32478 + uPa) [3]: 4.28 µg/mL
- EC50, CD40 RGA, FcgRIIB CHOK1 (sample v32478 - uPa) [3]: 5.43 µg/mL
- Fold wrt WT (EC50), CD40 RGA, FcgRIIB CHOK1 (sample v32478 + uPa) [3]: 88.2 fold
- Fold wrt WT (EC50), CD40 RGA, FcgRIIB CHOK1 (sample v32478 - uPa) [3]: 112 fold
- Fold wrt WT [4]: 42 fold
- EC50 [5]: 41 nM

B2: Variant 32497: Half-masked CD3 × Her2 Fab × scFv Fc, PD-1 KO attached to HC (bispecific antibody, human IgG1, kappa, L234A L235A)
heavy: not shown
light: DIQMTQSPSSLSASVGDRVTMTCSASSSVSYMNWYQQKPGKAPKRWIYDSSKLASGVPARFSGSGSGTDYTLTISSLQPEDFATYYCQQWSRNPPTFGGGTKLQITRTVAAPSVFIFPPSDEQLKSGTASVVCLLNNFYPREAKVQWKVDNALQSGNSQESVTEQDSKDSTYSLSSTLTLSKADYEKHKVYACEVTHQGLSSPVTKSFNRGEC
chain: not shown
notes: also called v32497; variant with a non-functional PD-1 domain appended to the heavy chain
- TDCC potency on JIMT-1 target cells, fold EC50 vs unmasked v30421 [6]: 55 fold
- EC50 [7]: 13 nM
- fold reduction in binding vs unmasked control [8]: 6 fold

B3: Variant 30421: CD3 × Her2 Fab × scFv Fc without mask (bispecific antibody, human IgG1, kappa, L234A L235A)
heavy: not shown
light: DIQMTQSPSSLSASVGDRVTMTCSASSSVSYMNWYQQKPGKAPKRWIYDSSKLASGVPARFSGSGSGTDYTLTISSLQPEDFATYYCQQWSRNPPTFGGGTKLQITRTVAAPSVFIFPPSDEQLKSGTASVVCLLNNFYPREAKVQWKVDNALQSGNSQESVTEQDSKDSTYSLSSTLTLSKADYEKHKVYACEVTHQGLSSPVTKSFNRGEC
chain: not shown
notes: also called v30421; unmasked variant
- Fold wrt WT [9]: 1 fold
- EC50 [10]: 1.2 nM
- Fold wrt v31931 [11]: > 35 fold
- EC50 [7]: 2.1 nM
- EC50 [12]: 2.3 nM
- Fold wrt v31929 [13]: > 570 fold
- EC50 [14]: 5.3 nM
- EC50 [15]: 1.2 nM
- Fold wrt WT [16]: 2.3 fold

B4: Variant 28662: HA PD-1:WT PD-L1 masked aCDH3 Mab, uncleavable (antibody, human IgG1, lambda)
heavy: not shown
light: AFTVTVPKDLYVVEYGSNMTIECKFPVEKQLDLAALIVYWEMEDKNIIQFVHGEEDLKVQHSSYRQRARLLKDQLSLGNAALQITDVKLQDAGVYRCMISYGGADYKRITVKVNAEAAAKEAAAKQSALTQPASVSGSPGQSITISCTGTSNDVGAYNYVSWYQQHPGKAPKLMISEVNKRPSGVSNRFSGSKSGNTASLTISGLQAEDEADYYCSSFTSGLPWVVFGGGTKLTVLGQPKAAPSVTLFPPSSEELQANKATLVCLISDFYPGAVTVAWKADSSPVKAGVETTTPSKQSNNKYAASSYLSLTPEQWKSHRSYSCQVTHEGSTVEKTVAPTECS
- Fold wrt WT [17]: 28 fold
- EC50 [18]: 9.8 nM

B5: Variant 17214: Unmasked aCDH3 mAb (antibody, human IgG1, lambda)
heavy: not shown
light: GQSALTQPASVSGSPGQSITISCTGTSNDVGAYNYVSWYQQHPGKAPKLMISEVNKRPSGVSNRFSGSKSGNTASLTISGLQAEDEADYYCSSFTSGLPWVVFGGGTKLTVLGQPKAAPSVTLFPPSSEELQANKATLVCLISDFYPGAVTVAWKADSSPVKAGVETTTPSKQSNNKYAASSYLSLTPEQWKSHRSYSCQVTHEGSTVEKTVAPTECS
- EC50 [18]: 0.36 nM
- Fold wrt WT [19]: 1 fold

B6: Variant 30426: WT PD-1:HA PD-L1 masked CD3 × Her2 Fab × scFv Fc, with an uncleavable linker (bispecific antibody, human IgG1, kappa, L234A L235A)
heavy: not shown
light: AFTVTVPKDLYVVEYGSNMTIECKFPVEKQLDLAALQVFWMMEDKNIIQFVHGEEDLKVQHSSYRQRARLLKDQLSLGNAALQITDVKLQDAGVYTCLIAYKGADYKRITVKVNAEAAAKEAAAKDIQMTQSPSSLSASVGDRVTMTCSASSSVSYMNWYQQKPGKAPKRWIYDSSKLASGVPARFSGSGSGTDYTLTISSLQPEDFATYYCQQWSRNPPTFGGGTKLQITRTVAAPSVFIFPPSDEQLKSGTASVVCLLNNFYPREAKVQWKVDNALQSGNSQESVTEQDSKDSTYSLSSTLTLSKADYEKHKVYACEVTHQGLSSPVTKSFNRGEC
chain: not shown
- Fold wrt v31931 [20]: > 35 fold
- Fold wrt v31929 [21]: > 570 fold

B7: Variant 31729: HA PD-1:WT PD-L1 masked aMSLN Mab, PD-L1 cleavable (not treated with uPa) (antibody, human IgG1, kappa)
heavy: not shown
light: AFTVTVPKDLYVVEYGSNMTIECKFPVEKQLDLAALIVYWEMEDKNIIQFVHGEEDLKVQHSSYRQRARLLKDQLSLGNAALQITDVKLQDAGVYRCMISYGGADYKRITVKVNAEAAAKEAAAKMSGRSANADIQMTQSPSSLSASVGDRVTITCSASSSVSYMHWYQQKSGKAPKLLIYDTSKLASGVPSRFSGSGSGTDFTLTISSLQPEDFATYYCQQWSKHPLTFGQGTKLEIKRTVAAPSVFIFPPSDEQLKSGTASVVCLLNNFYPREAKVQWKVDNALQSGNSQESVTEQDSKDSTYSLSSTLTLSKADYEKHKVYACEVTHQGLSSPVTKSFNRGEC
- Fold wrt WT (EC50) [22]: 31 fold
- EC50 [23]: 74 nM
